# Measured values from publication PMC2677886 (Nucleic Acids Research, 2009).
# B1: (His)6-MRE11, individually purified (natural protein, human, UniProt P49959 1-708, looked up)
# chain: MSTADALDDENTFKILVATDIHLGFMEKDAVRGNDTFVTLDEILRLAQENEVDFILLGGDLFHENKPSRKTLHTCLELLRKYCMGDRPVQFEILSDQSVNFGFSKFPWVNYQDGNLNISIPVFSIHGNHDDPTGADALCALDILSCAGFVNHFGRSMSVEKIDISPVLLQKGSTKIALYGLGSIPDERLYRMFVNKKVTMLRPKEDENSWFNLFVIHQNRSKHGSTNFIPEQFLDDFIDLVIWGHEHECKIAPTKNEQQLFYISQPGSSVVTSLSPGEAVKKHVGLLRIKGRKMNMHKIPLHTVRQFFMEDIVLANHPDIFNPDNPKVTQAIQSFCLEKIEEMLENAERERLGNSHQPEKPLVRLRVDYSGGFEPFSVLRFSQKFVDRVANPKDIIHFFRHREQKEKTGEEINFGKLITKPSEGTTLRVEDLVKQYFQTAEKNVQLSLLTERGMGEAVQEFVDKEEKDAIEELVKYQLEKTQRFLKERHIDALEDKIDEEVRRFRETRQKNTNEEDDEVREAMTRARALRSQSEESASAFSADDLMSIDLAEQMANDSDDSISAATNKGRGRGRGRRGGRGQNSASRGGSQRGRADTGLETSTRSRNSKTAVSASRNMSIIDAFKSTRQQPSRNVTTKNYSEVIEVDESDVEEDIFPTTSKTDQRWSSTSSSKIMSQSQVSKGVDFESSEDDDDDPFMNTSSLRRNRR
# B2: (His)6-NBS1, individually purified (natural protein, human, UniProt O60934 1-754, looked up)
# chain: MWKLLPAAGPAGGEPYRLLTGVEYVVGRKNCAILIENDQSISRNHAVLTANFSVTNLSQTDEIPVLTLKDNSKYGTFVNEEKMQNGFSRTLKSGDGITFGVFGSKFRIEYEPLVACSSCLDVSGKTALNQAILQLGGFTVNNWTEECTHLVMVSVKVTIKTICALICGRPIVKPEYFTEFLKAVESKKQPPQIESFYPPLDEPSIGSKNVDLSGRQERKQIFKGKTFIFLNAKQHKKLSSAVVFGGGEARLITEENEEEHNFFLAPGTCVVDTGITNSQTLIPDCQKKWIQSIMDMLQRQGLRPIPEAEIGLAVIFMTTKNYCDPQGHPSTGLKTTTPGPSLSQGVSVDEKLMPSAPVNTTTYVADTESEQADTWDLSERPKEIKVSKMEQKFRMLSQDAPTVKESCKTSSNNNSMVSNTLAKMRIPNYQLSPTKLPSINKSKDRASQQQQTNSIRNYFQPSTKKRERDEENQEMSSCKSARIETSCSLLEQTQPATPSLWKNKEQHLSENEPVDTNSDNNLFTDTDLKSIVKNSASKSHAAEKLRSNKKREMDDVAIEDEVLEQLFKDTKPELEIDVKVQKQEEDVNVRKRPRMDIETNDTFSDEAVPESSKISQENEIGKKRELKEDSLWSAKEISNNDKLQDDSEMLPKKLLLTEFRSLVIKNSTSRNPSGINDDYGQLKNFKKFKKVTYPGAGKLPHIIGGSDLIAHHARKNTELEEWLRQEMEVQNQHAKEESLADDLFRYNPYLKRRR
# Target: RECQ5–CBD fusion protein (human, UniProt O94762 1-991)
# Assay: pull-down
# Sequence of RECQ5–CBD fusion protein (O94762 whole entry, the tested form may be a part): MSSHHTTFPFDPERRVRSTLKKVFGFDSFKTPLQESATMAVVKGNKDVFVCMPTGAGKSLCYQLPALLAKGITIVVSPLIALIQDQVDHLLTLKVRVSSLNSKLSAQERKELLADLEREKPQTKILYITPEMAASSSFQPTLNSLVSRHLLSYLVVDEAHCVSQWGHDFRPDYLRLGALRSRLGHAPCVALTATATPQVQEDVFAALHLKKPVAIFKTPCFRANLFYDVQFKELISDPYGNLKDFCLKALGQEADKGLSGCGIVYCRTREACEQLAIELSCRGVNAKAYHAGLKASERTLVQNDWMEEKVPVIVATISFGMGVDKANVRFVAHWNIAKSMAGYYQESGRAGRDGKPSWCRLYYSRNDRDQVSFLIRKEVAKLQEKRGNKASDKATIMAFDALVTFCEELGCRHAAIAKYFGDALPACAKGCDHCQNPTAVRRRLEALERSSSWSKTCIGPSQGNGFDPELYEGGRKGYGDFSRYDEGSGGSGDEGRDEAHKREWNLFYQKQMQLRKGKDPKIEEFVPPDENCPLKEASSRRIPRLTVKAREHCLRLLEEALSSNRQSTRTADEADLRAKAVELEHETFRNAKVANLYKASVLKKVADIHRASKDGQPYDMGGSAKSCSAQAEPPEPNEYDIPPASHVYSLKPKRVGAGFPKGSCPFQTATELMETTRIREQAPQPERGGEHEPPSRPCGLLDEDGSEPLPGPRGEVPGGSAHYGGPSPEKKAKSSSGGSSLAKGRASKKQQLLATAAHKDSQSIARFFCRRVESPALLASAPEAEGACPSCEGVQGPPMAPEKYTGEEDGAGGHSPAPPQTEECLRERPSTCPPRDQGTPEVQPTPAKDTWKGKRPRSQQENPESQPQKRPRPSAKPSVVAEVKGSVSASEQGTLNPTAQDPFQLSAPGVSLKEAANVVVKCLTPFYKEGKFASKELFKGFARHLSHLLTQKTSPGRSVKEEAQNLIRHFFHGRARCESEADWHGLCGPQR
row,Binder,binding result
1,B1,binds
2,B2,binds
